Measurements from article PMC5718999.

Tests used:
[1] = molecular target: genetically engineered calmodulin (CaM) with cysteine on N-terminus (UniProt P0DP23); test: atomic force microscopy (height of the immobilised protein pattern); CaM immobilised by cysteine-Hg-SH coupling on MUTMS patterns on OTS-coated silicon; soaked 10 min in 1 g mL^-1 CaM KI binding domain solution at 4 °C, rinsed with buffer; imaged in air, ac mode, 75% relative humidity, 25 °C; height from topography histograms
[2] = molecular target: genetically engineered calmodulin (CaM) with cysteine on N-terminus (UniProt P0DP23); test: atomic force microscopy (height of the immobilised protein pattern); CaM immobilised by cysteine-Hg-SH coupling on MUTMS patterns on OTS-coated silicon; soaked 10 min in CaM KI binding domain solution at 4 °C, rinsed with buffer; imaged in air, ac mode, 75% relative humidity, 25 °C; height from topography histograms

increase of the height of the CaM layer [1]: 11.3 Å
apparent height above OTS of the KIBD-CaM pattern [2]: 4.2 nm
Substance: Calmodulin-dependent protein kinase I (299-320) binding domain (from UniProt Q63450 299-320) (peptide)
